Assay results taken from US20170202931.

Columns and labels:
Experiment in all cases: cell_activity
[1] = system: ZFN SBS 31523 (mouse albumin intron 1) (synthetic); conditions: as pair with 48641; mouse liver in vivo, males 4 months (females 45.69; 1 month 46.67 male, 34.05 female); deep sequencing
[2] = system: ZFN SBS 48641 (mouse albumin intron 1) (synthetic); conditions: as pair with 31523; mouse liver in vivo, males 4 months (females 45.69; 1 month 46.67 male, 34.05 female); deep sequencing
[3] = system: ZFN pair SBS 47171 / SBS 47931 (human albumin) (synthetic); conditions: HepG2 cells with IDS donor, 3 days (62.27 with IDUA donor); MiSeq

TTTCCTGTAACGATCGGGAACTGGCATC (double strand) [31523 target site]
activity [1]: 55.6 % indels

CTGAAGGTGGCAATGGTTCCTCTCTGCT (double strand) [48641 target site]
activity [2]: 55.6 % indels

human albumin locus ZFN site
activity [3]: 59.3 % indels
